Positions count from the first letter of the chain named.
T1: HCoV-229E spike antigens (bead panel) (HCoV-229E, UniProt P15423 16-1115)
T1 sequence: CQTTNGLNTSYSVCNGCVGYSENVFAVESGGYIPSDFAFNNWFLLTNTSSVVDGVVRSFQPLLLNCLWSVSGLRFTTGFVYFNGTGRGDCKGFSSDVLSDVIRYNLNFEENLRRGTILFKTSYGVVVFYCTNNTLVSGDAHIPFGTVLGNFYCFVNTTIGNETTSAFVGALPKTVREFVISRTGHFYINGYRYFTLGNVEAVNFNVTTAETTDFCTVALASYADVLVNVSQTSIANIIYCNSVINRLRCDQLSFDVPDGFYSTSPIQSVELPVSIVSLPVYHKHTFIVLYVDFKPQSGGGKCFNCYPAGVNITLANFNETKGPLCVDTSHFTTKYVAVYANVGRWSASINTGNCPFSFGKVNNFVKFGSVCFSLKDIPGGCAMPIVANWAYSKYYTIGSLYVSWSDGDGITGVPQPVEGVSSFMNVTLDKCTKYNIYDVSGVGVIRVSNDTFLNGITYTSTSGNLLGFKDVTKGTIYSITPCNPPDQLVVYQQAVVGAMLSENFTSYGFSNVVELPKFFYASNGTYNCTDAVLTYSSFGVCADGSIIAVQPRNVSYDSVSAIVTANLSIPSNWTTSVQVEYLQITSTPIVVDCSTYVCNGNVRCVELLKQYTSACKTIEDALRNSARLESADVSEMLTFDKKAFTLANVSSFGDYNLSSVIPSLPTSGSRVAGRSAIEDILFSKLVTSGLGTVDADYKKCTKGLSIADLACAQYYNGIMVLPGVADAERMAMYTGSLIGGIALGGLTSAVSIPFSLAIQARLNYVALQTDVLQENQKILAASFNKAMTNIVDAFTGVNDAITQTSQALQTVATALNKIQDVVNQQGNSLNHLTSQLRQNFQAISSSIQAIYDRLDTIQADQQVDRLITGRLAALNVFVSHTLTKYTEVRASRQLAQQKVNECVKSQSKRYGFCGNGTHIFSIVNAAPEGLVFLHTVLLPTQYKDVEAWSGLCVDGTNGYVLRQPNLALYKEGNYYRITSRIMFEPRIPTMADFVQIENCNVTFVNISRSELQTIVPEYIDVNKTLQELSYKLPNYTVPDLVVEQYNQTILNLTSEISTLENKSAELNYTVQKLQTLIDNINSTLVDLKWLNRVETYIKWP

T2: HCoV-OC43 spike antigens (bead panel) (HCoV-OC43, UniProt P36334 14-1297)
T2 sequence: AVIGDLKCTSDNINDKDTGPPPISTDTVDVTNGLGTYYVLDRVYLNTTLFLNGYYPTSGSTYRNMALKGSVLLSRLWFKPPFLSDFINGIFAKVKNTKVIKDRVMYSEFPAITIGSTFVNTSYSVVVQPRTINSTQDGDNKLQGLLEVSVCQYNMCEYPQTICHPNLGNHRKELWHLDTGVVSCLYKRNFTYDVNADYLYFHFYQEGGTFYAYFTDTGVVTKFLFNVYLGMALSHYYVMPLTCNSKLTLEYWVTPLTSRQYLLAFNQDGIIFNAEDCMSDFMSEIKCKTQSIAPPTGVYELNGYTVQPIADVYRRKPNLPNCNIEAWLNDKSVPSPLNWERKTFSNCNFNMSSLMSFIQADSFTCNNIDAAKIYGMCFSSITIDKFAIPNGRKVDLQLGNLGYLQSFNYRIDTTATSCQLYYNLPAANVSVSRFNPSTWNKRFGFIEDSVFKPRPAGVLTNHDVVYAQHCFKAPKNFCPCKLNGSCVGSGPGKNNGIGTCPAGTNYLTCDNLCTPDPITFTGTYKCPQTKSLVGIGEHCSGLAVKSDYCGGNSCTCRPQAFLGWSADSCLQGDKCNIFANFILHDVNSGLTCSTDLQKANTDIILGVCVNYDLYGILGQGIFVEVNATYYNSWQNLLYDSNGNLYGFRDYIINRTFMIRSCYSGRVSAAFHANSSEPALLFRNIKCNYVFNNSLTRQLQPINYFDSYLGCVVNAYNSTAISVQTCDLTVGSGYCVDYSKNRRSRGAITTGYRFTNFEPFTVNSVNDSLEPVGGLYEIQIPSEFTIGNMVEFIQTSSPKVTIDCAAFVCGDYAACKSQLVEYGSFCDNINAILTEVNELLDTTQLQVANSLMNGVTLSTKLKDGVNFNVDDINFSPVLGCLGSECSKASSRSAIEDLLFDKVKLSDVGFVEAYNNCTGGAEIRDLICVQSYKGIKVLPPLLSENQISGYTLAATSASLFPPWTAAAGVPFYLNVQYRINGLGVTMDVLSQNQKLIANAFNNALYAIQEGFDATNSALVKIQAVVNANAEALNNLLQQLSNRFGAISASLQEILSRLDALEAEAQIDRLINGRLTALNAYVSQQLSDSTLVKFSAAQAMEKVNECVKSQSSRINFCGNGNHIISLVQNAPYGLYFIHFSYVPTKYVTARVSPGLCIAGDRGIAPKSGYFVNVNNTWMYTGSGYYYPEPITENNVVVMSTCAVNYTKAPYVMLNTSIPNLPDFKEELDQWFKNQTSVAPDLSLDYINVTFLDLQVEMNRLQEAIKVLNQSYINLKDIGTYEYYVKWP

B1: COV_2137 (antibody, V domains shown)
VH: EVQLVESGGGLVKPGGSLRLSCAASGFTFSSYTMNWVRQAPGKGLEWVSSISSGSSFIYYADSLRGRFTISRDNAKNSLYLQMNSLRAEDTAVYYCARAPEPQSVIYAYWYFDLWGRGTLVTVSS
VL: QSALTQPASVSGSPGQSITFSCTGTSSDVGSYNLVSWYQQYPGKAPKLMIYEVNKRPSGVSNRFSGSKSGNTASLTISGLQAEDEADYYCCSYAGSSTFYVFGTGTKVTVLG
notes: human IgG1
B2: COV_2100 (antibody, V domains shown)
VH: EVQLVESGGGLVQPGGSLRLSCAASGFTFSSYDMYWVRQATGKGLEWVSAIGTAGDTYYPGSVKGRFTISRENAKNSLYLRMNSLRAGDTAVYFCARADKNTAMFFDYWGQGTLVTVSS
VL: DIQMTQSPSSLSASVGDRVTITCRASQNINNFLHWYQQKPGNAPKLLIYAASTLQSGVPSRFSGSGSGTDFTLTISSLQPEDFATYYCQQSYSTPGGTFGGGTKVEIK
notes: human IgG1
B3: COV_1118 (antibody, V domains shown)
VH: EVQLVESGGGLVKPGGSLRLSCAASGFSFSNYNMNWVRQAPGKGLEWVSYISSSSSYIYYADSVKGRFTISRDNAKNSLYLQMNSLRGEDTAVYSCAREASGAYYFDRSGYFDYWGQGTLVTVSP
VL: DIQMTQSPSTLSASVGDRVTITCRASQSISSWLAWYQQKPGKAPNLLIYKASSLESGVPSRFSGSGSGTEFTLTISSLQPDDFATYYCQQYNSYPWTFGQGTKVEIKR
notes: human IgG1
B4: COV_1154 (antibody, V domains shown)
VH: B3 VH with S28R, N31D
VL: DIQMTQSPSTLSASVGDRVTITCRASQSISSWLAWYQQKPGKAPNLLIYKASSLESGVPSRFSGSGSGTEFTLTISSLQPYDFATYYCQQYNSYPWAFGQGTKVEMKR
notes: human IgG1
B5: COV_1136 (antibody, V domains shown)
VH: B3 VH with S28T, N31D, Y32C, Y50S, S54R, G88A
VL: B4 VL with Y81D, S93T, A97T, M106I
notes: human IgG1
B6: COV_1050 (antibody, V domains shown)
VH: QVQLVESGGGVVQPGRSLRLSCAASRFTFSSYAMHWVRQAPGKGLEWVAVISFDGSNKYYADSVKGRFTIFRDNSKNTLSLQMNSLRTEDTAMYYCASPAGYYESLWGQGTLVTVSS
VL: SYELTQPPSVSVSPGQTARVTCSGDALSKQYGFWYQQKPGQAPTLVIYKDTERPSGIPERFSGSGSGTTVTLTISGVQAEDEADYYCQSTDNSGRWVFGGGTKLTVLG
notes: human IgG1
B7: COV_2196 (antibody, V domains shown)
VH: QVQLVQSGAEVKKPGASVKVSCKVSGYTLIELSMHWVRQAPGKGLEWMGGFDPEDAKTIYAQKFQGRVTMTEDTSTDTAYMELSSLTFEDTAVYYCATTPAFMAAAGDFDYWGQGTLVTVSS
VL: QPVLTQPSSVSVSPGQTATITCSGDVLAKKYARWFQQKPGQAPMLVIYKDTERPSGIPERFSGSSSGTTVTLTINGAQVEDEADYYCYSAAAWVFGGGTKLTVL
notes: human IgG1
B8: COV_3088 (antibody, V domains shown)
VH: EVQLVESGGGLVQPGGSLRLSCAASGFTFSSYDMHWVRQATGKGLEWVSAIGTAGDTYYPGSVKGRFTISRENAKNSLYLQMNSLRAGDTAVYYCARGSGWPPFFDYWGQGTLVTVSS
VL: SYELTQPPSVSVAPGKTARITCGGNNIGSKSVHWYQQKPGQAPVLVIYYDSDRPSGIPERFSGSNSGNTATLTISRVEAGDEADYYCQVWDSSSDHHWVFGGGTKLTVL
notes: human IgG1
B9: COV_3053 (antibody, V domains shown)
VH: EVQLVESGGGLVQPGRSLRLSCTASGFTLGDYAMTWVRQAPGKGLEWLGIIRNKRYGETKQYAASVKGRFTFSRDDSKGIGYLQRLSLKIEDTGVYYCTREHIVRDDAFDVWGQGTTVTVSS
VL: DIVMTQSPDSLAVSLGERATINCKSSQSVLYSSNNKNYIAWYQQRPGQPPKLLIYWTSTRASGVPDRFSGSGSGTDFALTISSLQAEDVAVYYCQQYYTIPRTFGQGTKVEIK
notes: human IgG1
B10: COV_2193 (antibody, V domains shown)
VH: QVQLVQSGAEVKKPGASVKVSCKVSGYTLTDLSMHWVRQTPGKGLEWMGGFDAEDGETIYAQNFQGRVTMTEDTSIDVAYMELSSLRSEDTAVYYCATGSVGPDYWGQGTLVTVSS
VL: SSELTQDPAVSVALGQTVRITCQGDSLRSYYASWFQQKPGQAPVLVIYLKNDRPSGIPDRFSGSSSGNTASLTITGAQAEDEADYYCNSRDSSGNHQVFGGGTKLTVL
notes: human IgG1
B11: COV_1025 (antibody, V domains shown)
VH: QVQLVESGGGVVQPGRSLRLSCAASGFTFNTYAMHWVRQAPGKGLEWVAIISYDGGNKYYADSMKGRFTISRDNSKNTLYLQMNSLRAEDTAVYYCARARTGNYYYGMDVWGQGTTVTVSS
VL: not shown
notes: human IgG1
B12: COV_2134 (antibody, V domains shown)
VH: EVQLVESGGGVVQPGRSLRLSCAASGFIFSSYGMYWVRQAPGKGLEWVAVIWYDGSNKYYADSVKGRFTISRDNSKNTLYLQMNSLRAEDTAVYYCARDLSSSSGWDDYYYYYGMDVWGQGTTVTVSS
VL: not shown
notes: human IgG1
B13: COV_2103 (antibody, V domains shown)
VH: EVQLVESGGGVVQPGRSLRLSCGASGFTFSSYGIHWVRQAPGKGLDWVAVIWHDGSQKYYGDSVKGRFTISRDNSKNTLYLQMNRLRAEDTAVYYCARDSGDDYDSSGYPIGNAFDLWGQGTMVTVSS
VL: DIQMTQSPSTLSASVGDRVTITCRASQFINSWLAWYQQKPGKAPKLLIYKASSLETGVPSRFSGSGSGTEFTLTISSLQPDDFATYYCQQYNTYSFTFGPGTKVDIK
notes: human IgG1
B14: COV_1145 (antibody, V domains shown)
VH: QVQLVESGGGVVQPGRSLRLSCAASGFTFSSYGMHWVRQAPGKGLEWVAVIWYDGSNKYYADSVKGRFTISRDNSKNTLYLQMNSLRVEDTAVYYCAREGQLGATGLDCWGQGTLVSVSS
VL: SYELTQPPSVSVSPGQTARITCSGDALPKKYAYWYQQKSGQAPVLVIYEDSKRPSGIPERFSGSSSGTMATLTISGAQVEDEADYYCYSTDNSGNHWVFGGGTKLTVLG
notes: human IgG1

The binders below were run against T1, HCoV-229E spike antigens (bead panel) (assay: multiplex bead assay).

Question: Does B1 bind?
Answer: no binding

Question: Does B2 bind?
Answer: no binding

Question: Does B3 bind?
Answer: no binding

Question: Does B4 bind?
Answer: no binding

Question: Does B5 bind?
Answer: no binding

Question: Does B6 bind?
Answer: no binding

Question: Does B7 bind?
Answer: no binding

Question: Does B8 bind?
Answer: no binding

Question: Does B9 bind?
Answer: no binding

Question: Does B10 bind?
Answer: no binding

Question: Does B11 bind?
Answer: no binding

Question: Does B12 bind?
Answer: no binding

Question: Does B13 bind?
Answer: no binding

Question: Does B14 bind?
Answer: no binding

What follows are binders tested against T2, HCoV-OC43 spike antigens (bead panel) (assay: multiplex bead assay).

Question: Does B1 bind?
Answer: no binding

Question: Does B2 bind?
Answer: no binding

Question: Does B3 bind?
Answer: no binding

Question: Does B4 bind?
Answer: no binding

Question: Does B5 bind?
Answer: no binding

Question: Does B6 bind?
Answer: no binding

Question: Does B7 bind?
Answer: no binding

Question: Does B8 bind?
Answer: no binding

Question: Does B9 bind?
Answer: no binding

Question: Does B10 bind?
Answer: no binding

Question: Does B11 bind?
Answer: no binding

Question: Does B12 bind?
Answer: no binding

Question: Does B13 bind?
Answer: no binding

Question: Does B14 bind?
Answer: no binding

Reference: patent US20240101645A1 (HENRY M JACKSON FOUNDATION FOR THE ADVANCEMENT OF MILITARY …, published 2024)
